According to the supplement of paper PMC12764529:
± gives the half width of the 95% confidence interval.

Experiments:
[1] = folding stability dG unfold from trypsin proteolysis; higher = more stable
Procedure: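 Folding stability of de novo designed mini-proteins (<80 aa, no Cys; designed by TrROS, TrMRF, ProteinMPNN and the joint model) was measured by cDNA display proteolysis with trypsin and chymotrypsin. Each protease was used at 11 concentrations in a threefold dilution series plus a no-protease condition. K50 was inferred by Bayesian fitting of sequencing counts, and dG unfold was derived against a sequence-predicted unfolded-state K50 (Tsuboyama et al. method). Sequences shown include variable-length N-terminal GS-type padding (SAGGSAGG...) inside a display construct carrying a PA tag. Rows were kept only if the AF2 dimer inter-PAE was >15, to exclude likely homo-oligomers.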

[2] = folding stability dG unfold from chymotrypsin proteolysis; higher = more stable
Outline: (§1)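 Sequencing followed digestion of designed mini-proteins with trypsin and chymotrypsin, each at 11 concentrations in threefold dilutions together with a no-protease condition. The mini-proteins were under 80 residues, had no cysteine, sat in a PA-tagged cDNA display construct, and were kept only if AlphaFold2 dimer inter-PAE was above 15. From the counts, Bayesian fitting gave K50, and unfolding free energy was derived against a sequence-predicted unfolded-state K50 and a shared folded-state K50, per protease or combined.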

[3] = folding stability dG unfold (combined trypsin and chymotrypsin); higher = more stable
Outline: as §1

Sequence | folding stability dG unfold [1] [kcal/mol] | folding stability dG unfold [2] [kcal/mol] | folding stability dG unfold [3] [kcal/mol]
SIEELAKKFPNVTVTVEKTEDGEVKITITVKTSEEQKKELQEKLKELAKKLAEELDLKVEIEIKVLPAPPSA [r9_1099_TrROS_Hall] | 3.86 ± 0.26 | 3.7 ± 0.38 | 
SALINLKKEDVEKLVKALEKEGNYKVKIKPVKVVYKPKDGSKKPIGAVKIEVIDPDNPKSLLDKIKKAGSAG [r14_628_TrMRF] | -1.29 ± 0.62 |  | < -1
SAKVFTAEEIKALAEELEKAGLEVEAVVLDKDGKIVAVAPKELLKPPPVEEVKEVKVEVEDDPEKLKAAKSA [r9_568_TrROS_Hall] | -0.442 ± 0.97 |  | < -1
SAGGSANTIMIPFDDLTPDKILEAAEESPDPIMIHNPDNGRFLTVEVEDGGIDDVTWEPFDPEDFGSAGGSA [r15_751_TrROS] | 0.499 ± 0.042 |  | -0.135 ± 0.18
SSPGLVEVTIPLKIVLEPLAPDGTPAPRPVATVPIKTAASSEDPSAIEQAKEDVIKELKPEFPDAKFVVESA [r9_1112_JUSTAS] | 0.223 ± 0.065 |  | < -1
SAGGPMKVQVAVWRRDPDNGEPKEVEIPMTWDNIRELLDDIPPDGRYMVKIHSPGQPQTIPLEDLKELSAGG [r13_254_TrROS] | 0.153 ± 0.42 |  | < -1
SAGSMEVKVEIPEEVLKKIESAPPGTVVEYTETVTITTTTTIPGPGNPVPLTSTTPSPIKLTYTKPSSPSAG [r5_946_JUSTAS] | -0.608 ± 0.06 |  | -0.915 ± 0.31
SAGGSAGGMKAKVLVLDPETGKEYDSLEELKAEVEGPVLIRNSTGELILLHRDDLKYFPLPLSLSAGGSAGG [r6_684_TrMRF] | 0.305 ± 0.12 |  | 0.0344 ± 0.2
GMAEELAVEKAKEYLAPIPKPYEIDPEKKTVTLPGGGPLKTIPILVTVKDENGNVIKVIEVPIKVVSIPPGS [r1_318_JUSTAS] | 0.0543 ± 0.093 |  | -0.159 ± 0.25
SAGGMLLYEKTVTSSPDDEALKLAKEIEEKLTPPDYITKIKVEVTPLPNGTYKVTIPIEILPPGYPKSAGGS [r16_128_JUSTAS] | -0.0273 ± 0.076 |  | -0.426 ± 0.19
SAGGSAGGSAGMTLEEKLKEAEEKHKKEGGPATITITDPTATGVSKTYTVTIENEGLKVESAGGSAGGSAGG [r11_954_JUSTAS] | 0.034 ± 0.055 |  | -0.132 ± 0.36
SAGGSAGGSAGGMTITLEFTTEEEVEAYAKEIGATKVEVTREKTETPEERIKATIEKPGSAGGSAGGSAGGS [r10_494_JUSTAS] | -0.365 ± 0.74 |  | < -1
SAGGSAGGIRIHRDNDKYVIHVPMDPNQPPENIKDILRDLPGLEDPEEIEYVPNPNGQAMIKIPSAGGSAGG [r6_516_TrROS] | -0.0828 ± 0.18 |  | < -1
SAGGSAGGSAGGSMPKPKVIKVPVDPNVSKEEVAKEVLPKTGLNVESIEESEDVLYVLNSAGGSAGGSAGGS [r4_469_JUSTAS] | -1.11 ± 0.38 |  | < -1
SAGGSAGGSAGPPIYWRIEFENPGKKHTMTIPRDMPVDDIKEIADEIAKRFPMPISIEPVSAGGSAGGSAGG [r11_515_TrROS] | -0.335 ± 0.22 |  | -0.565 ± 0.25
SAGGSAGGSAGGSNIILIPAKPGEEFKIKINGRPLKIQRDKDKPGYIMIEFPDGQWQPISAGGSAGGSAGGS [r4_488_TrROS] | -0.041 ± 0.2 |  | -0.174 ± 0.24
SAMTTLEKEGDVTITRTKLPDGTVVVTTEVPESRPLAELTTETITIYPDGTVTTTSQTLTLDPATGRLGSAG [r14_724_JUSTAS] | -0.146 ± 0.075 |  | -0.567 ± 0.23
SAGMKELVLVERDAPVLGVYLDPETGRPRLEPRPVPVVVVVEVEPDSEAARELAEKLAPEDVRVEVLPASAG [r5_468_TrMRF] | 0.164 ± 0.05 |  | -0.483 ± 0.24
SAGGGGMPAVKEEVTPVPGGVLTTTTLPDGSVKVTVSPPSGPAVASATKPVPSGSSVTVTVTLRPAALSAGG [r13_584_JUSTAS] | 0.367 ± 0.019 |  | -0.335 ± 0.087
MAVTPEVLERMREEGVPEEVLAELGEVAVPSSDPRPEYIAELRALPGVSEVSPIPPTDPAALAALPERLLES [r1_248_JUSTAS] | -0.884 ± 0.54 |  | < -1
SAGGSAGGSAGGMENGKIEIYKKEKDTFIAKINNGDKVIIIEKIKSIEELKEALIELGYGSAGGSAGGSAGG [r7_91_TrMRF] | 0.527 ± 0.029 |  | 0.136 ± 0.17
SAGGPVIKIPIEIMMPNNDLNKFANEIAKELQDDGYKVKINPIEFEPQRDPDGKPDYVHFRATVEVQPSAGG [r13_707_TrROS] | -0.228 ± 0.18 |  | < -1
SAGMSSSEVIDIDAGPEKLKELVAKIKKESPNYTIVVTDPETGKPTLLDPSELKNIPGPVKLTITKYPQSAG [r5_437_JUSTAS] | -1.16 ± 0.66 |  | < -1
SAGGWIPIDEIKDLLDNGKPMPLEQIVKEIQKDFGYPVTIEEDDDSFWIHVENPNTGEPREEIEIDPSAGGS [r8_105_TrROS] | 0.354 ± 0.11 |  | -0.392 ± 0.38

Sequence | folding stability dG unfold [1] [kcal/mol] | folding stability dG unfold [2] [kcal/mol] | folding stability dG unfold [3] [kcal/mol]
SAGGSALIVLEGDLDSVVALAKEAGDPNVKVEPVADFNDDPSEPRLYRITIERDGEPDGELLFLDPSAGGSA [r15_428_TrMRF] | -0.0896 ± 0.1 |  | < -1
SAGGSASIDELKEEILAKTPPDVVTTGYATSSDSLSTRTYSTPAGHRVVISYTDNEIKSVSLEKAGSAGGSA [r15_175_JUSTAS] | 0.333 ± 0.16 |  | -0.138 ± 0.22
SAGGSEVRELAEAIAAARGLPLRAIETKEVTPDTVEITMELPDDRTLTVTVPRSPEGGYEVTVTEDASAGGS [r8_284_JUSTAS] | -0.349 ± 0.26 |  | < -1
SAGGSAGGMSPDVEVVTVERVITTTEPVSPSLSPEYLKAYPNATKTTTTVTVTVVPKERFEELTSAGGSAGG [r6_831_JUSTAS] | -1.44 ± 0.43 |  | < -1
SAGGGMSTPVGVDSKLTEVREDTETGLITTTSVYRAGSEVTTVTESRPLGNPEDVTTLETTTTPASASAGGS [r16_89_JUSTAS] | 0.0405 ± 0.041 |  | -0.204 ± 0.15
SAGGSAGGSAGGGSSLVDPEGKPLPPRPEVVTTTGSYYSSLPGDGYYHLEEPVVEPVYPESAGGSAGGSAGG [r7_572_JUSTAS] | 0.339 ± 0.051 |  | -0.198 ± 0.14
SAGGSAGGSAGGSGAEEAAKAVREAFPELGVPILVEVGYIPGTKELPVRVYIPSTRLELSAGGSAGGSAGGS [r4_312_TrMRF] | -0.294 ± 0.055 |  | < -1
SAGGSAGGSAGGSMAVPQTVEVEAGAKPILVTTYRLPPDGAVVRIEYPGPAVVLEEELESAGGSAGGSAGGS [r10_630_JUSTAS] | -0.445 ± 0.2 |  | < -1
SAGGSAGGSAHTIEDPDNNKKIEVHPPPNGNYMVEIERPDNGEKKTIMMPPDDVEEALNQISAGGSAGGSAG [r3_162_TrROS] | -0.139 ± 0.2 |  | < -1
SAGGSAGGSAGGSATVINIPASSLSEEEIEALAKALEEEDPSIKGPKIEKGDGTYTIVQSAGGSAGGSAGGS [r4_330_JUSTAS] | 0.553 ± 0.046 |  | -0.533 ± 0.23
SAGMKFKPGAKVEVYNKKTKKKIVLPVEELRKLAREKFGVETEEERLAEAIKEKAKENGFEIVKIEPVSAGG [r19_67_TrROS_Hall] | -0.166 ± 0.35 |  | -0.0445 ± 0.44
SAGGMTSYSVTVELPETGKKITITVPNNDPNVTPEKAAAEAEKRIKAEKEKIKKELEKKPKKPSSKLKSAGG [r13_126_JUSTAS] | -0.907 ± 0.93 |  | < -1
SEALILDPNVETVSPVFYLLLSPEEAEERARELREELRAELEAAGLPLPEDVVIEVVPAESEEELRALLESA [r9_204_JUSTAS] | 0.5 ± 0.049 |  | 0.00109 ± 0.18
SDDLSTTVTVTTPGGPTLTLTFPSNASVSTSPIDENSIVITFPGYEAVVEIAPGGKPRLKEVSEKEPVDSSA [r9_773_JUSTAS] | -0.534 ± 0.2 |  | < -1
SAGGSAGGSAGGMIEIEVEKEEEVKELAEKFGFKVEAEKIEDGKIIAKIEFIPEEELKKSAGGSAGGSAGGS [r10_218_TrMRF] | -0.839 ± 0.24 |  | < -1
SAGGSAGGSWPFRIEIYNPENGKEEVKDIPGDLDELKDLIPPGYRVKIEFGDEEITIPIDDIKSAGGSAGGS [r20_36_TrROS] | -0.331 ± 0.16 |  | -0.587 ± 0.27
SAGGSAGGSAVKVIPFPFNEALDLLNSGEPKEIHVVGPPGWYMTVQFNPPDNNIEIDDPVPPSAGGSAGGSA [r18_400_TrROS] | 0.732 ± 0.043 |  | 0.194 ± 0.14
SAGGSAGGSMVEIDPDNLVLTIVDPETGKAAVITAPPTADGTPVIKDVVVFDPDGNPHTFTVDSAGGSAGGS [r12_952_TrMRF] | 0.666 ± 0.022 |  | 0.13 ± 0.091
SAGGSAGGSSAEEIAKELGYKEIEVKPLRPVSTETLDSGGYSQKTEYVTTIKLPDGTEIEIPVSAGGSAGGS [r12_221_JUSTAS] | 0.788 ± 0.025 |  | 0.275 ± 0.051
MHKVEHTIKHPGYEIKIEVTMYPNPNGNYYVPIKIEREDPKDNKPKKKPIMVPFPPGDPDDFVDWALEEILS [r1_171_TrROS] | -0.189 ± 0.17 |  | -0.207 ± 0.55
SAGGSAGGSKIEMMHAIRDNGKPFFVRITMDIQPQKDPNGEPKVNFEPKIEIYDPDGKPIFEISAGGSAGGS [r20_224_TrROS] | 0.641 ± 0.14 |  | 0.392 ± 0.3
SAMIKIEIVLPEEDLEKLLESEEVKELAKELEKKTGLKITSIKIEKKEVEVNGEKKKVVVITIEIEPEPSAG [r14_819_TrROS_Hall] | 3.42 ± 0.24 |  | > 6
SAGGSAGGSAGMKVVLTVPESEAAKPEVLEAKAQEIKEKHPGEEVEVEFITNPFPPGTPLSAGGSAGGSAGG [r11_743_JUSTAS] | 0.456 ± 0.019 |  | -0.108 ± 0.1
